Test results published in PMC11220700, “Activation and Purification of ß‐Glucocerebrosidase by Exploiting its Transporter LIMP‐2 – Implications for Novel Treatment Strategies in Gaucher's and Parkinson's Disease” (Advanced Science, 2024).

Target: imiglucerase/Cerezyme (recombinant GCase, Sanofi Genzyme) (Homo sapiens) (UniProt P04062)
Assay: MST
Conditions: Fc fusion

imiglucerase/Cerezyme (recombinant GCase, Sanofi Genzyme) (Homo sapiens), sequence (P04062 other isoform, or with tags, fused parts or gaps): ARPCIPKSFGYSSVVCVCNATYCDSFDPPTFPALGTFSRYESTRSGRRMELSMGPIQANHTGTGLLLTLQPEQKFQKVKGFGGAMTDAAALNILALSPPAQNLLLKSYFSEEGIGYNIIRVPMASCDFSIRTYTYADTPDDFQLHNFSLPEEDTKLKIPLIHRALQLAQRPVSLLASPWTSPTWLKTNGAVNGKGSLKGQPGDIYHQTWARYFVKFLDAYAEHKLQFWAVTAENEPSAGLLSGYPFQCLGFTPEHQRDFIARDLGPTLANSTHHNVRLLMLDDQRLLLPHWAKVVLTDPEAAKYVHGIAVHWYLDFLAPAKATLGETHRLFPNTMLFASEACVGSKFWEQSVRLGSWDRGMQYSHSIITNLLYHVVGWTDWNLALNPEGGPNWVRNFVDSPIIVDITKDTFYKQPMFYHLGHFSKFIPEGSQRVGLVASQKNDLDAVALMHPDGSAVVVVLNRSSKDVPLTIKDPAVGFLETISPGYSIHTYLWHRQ
sLIMP‐2‐FC (Sino Biological #11063‐H03H), sequence (Q14108 27-432): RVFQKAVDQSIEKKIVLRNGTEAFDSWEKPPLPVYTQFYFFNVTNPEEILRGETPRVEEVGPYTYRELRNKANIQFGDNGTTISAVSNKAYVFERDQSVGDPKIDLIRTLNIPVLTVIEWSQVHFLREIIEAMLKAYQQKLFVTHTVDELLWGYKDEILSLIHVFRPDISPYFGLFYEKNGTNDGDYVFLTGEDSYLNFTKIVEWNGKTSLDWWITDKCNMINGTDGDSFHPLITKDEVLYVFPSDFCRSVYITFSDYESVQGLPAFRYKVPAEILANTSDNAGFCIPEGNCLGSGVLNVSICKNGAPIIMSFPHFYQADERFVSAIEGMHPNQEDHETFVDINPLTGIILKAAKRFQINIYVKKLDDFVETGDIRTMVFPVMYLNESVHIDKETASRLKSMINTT

Kd: 1380 nM
Substance: sLIMP‐2‐FC (Sino Biological #11063‐H03H)
